Measured values published in the supplement of paper PMC7877785.
± gives the uncertainty stated by the source.

Test: self-splicing fitness, log relative to wild type (ln ratio); higher = more splicing; Tetrahymena group I intron in knt gene, E. coli kanamycin selection, DiMSum; sequences stand for … in CUCUCU…GGAGGGAAAAGUUAUCAGGCAUGCACCUGGUAGCUAGUCUUUAAACCAAUAGAUUGCAUCGGUUUAAAAGGCAAGACCGUCAAAUUGCGGGAAAGGGGUCAACAGCCGUUCAGUACCAAGUCUCAGGGGAAACUUUGAGAUGGCCUUGCAAAGGGUAUGGUAAUAAGCUGACGGACAUGGUCCUAACCACGCAGCCAAGUCCUAAGUCAACAGAUCUUCUGUUGAUAUGGAUGCAGUUCACAGACUAAAUGUCGGUCGGGGAAGAUGUAUUCUUCUCAUAAGAUAUAGUCGGACCUCUCCUUAAUGGGAGCUAGCGGAUGAAGUGAUGCAACACUGGAGCCGCUGGGAACUAAUUUGUAUGCGAAAGUAUAUUGAUUAGUUUUGGAGUACUCGUGGUCG
Summary of the method: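 Colonies from six replicate transformations of E. coli BL21(DE3) were pooled and amplicon-sequenced on an Illumina HiSeq 2500. The library placed an intron with all eight P1ex-region nucleotides randomised inside the knt kanamycin-resistance gene on pET-22b(+), and cells grew overnight at 37°C or 30°C on LB agar with or without 25 μg/mL kanamycin (plus 100 μg/mL carbenicillin, 50 μM IPTG, 0.2% rhamnose). Fitness is the DiMSum error-weighted combination of wild-type-normalised replicate fold changes, kanamycin versus none.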

Sequence	self-splicing fitness (ln) (30 °C)	self-splicing fitness (ln) (37 °C)
UUCCAGCAAUAUUACGUAUG	-3.02 ± 0.13	-1.38 ± 0.14
UUCCAGCAAUAUUACGUGCU	-4.4 ± 0.34	-3.29 ± 0.29
UUCCAGCAAUAUUACGUUUU	-3.74 ± 0.14	-2.65 ± 0.16
UUCGAGCAAUAUUACGAAGA	-2 ± 0.29	-1.36 ± 0.25
UUCGAGCAAUAUUACGAGGG	-3.94 ± 0.3	-3.12 ± 0.37
UUCGAGCAAUAUUACGAUCC	-2.6 ± 0.49	
UUCGAGCAAUAUUACGAUGU	-3.71 ± 0.46	-2.7 ± 0.25
UUCGAGCAAUAUUACGCACA	-1.76 ± 0.25	-1.45 ± 0.28
UUCGAGCAAUAUUACGCUCG	-1.64 ± 0.25	-3.36 ± 0.42
UUCGAGCAAUAUUACGCUGA	-2.66 ± 0.45	-1.89 ± 0.44
UUCGAGCAAUAUUACGCUGG	-0.924 ± 0.28	-1.02 ± 0.42
UUCGAGCAAUAUUACGCUUG	-3.26 ± 0.41	
UUCGAGCAAUAUUACGGCAG	-2.05 ± 0.17	-1.39 ± 0.19
UUCGAGCAAUAUUACGGCGA	-2.23 ± 0.17	-0.638 ± 0.18
UUCGAGCAAUAUUACGGGAA	-1.74 ± 0.16	-0.981 ± 0.15
UUCGAGCAAUAUUACGGGUG	-1.78 ± 0.074	-1.42 ± 0.086
UUCGAGCAAUAUUACGGUGU		-3.35 ± 0.42
UUCGAGCAAUAUUACGUAGG	-2.9 ± 0.2	-1.52 ± 0.19
UUCGAGCAAUAUUACGUCUG	-2.57 ± 0.24	-1.65 ± 0.22
UUCGAGCAAUAUUACGUGGC	-1.49 ± 0.48	
UUCGAGCAAUAUUACGUUCA	-1.99 ± 0.13	-1.15 ± 0.13
UUCUAGCAAUAUUACGAGAU	-3.95 ± 0.33	-2.67 ± 0.34
UUCUAGCAAUAUUACGCAAG	-2.26 ± 0.35	-0.437 ± 0.34
UUCUAGCAAUAUUACGCUAU	-4.08 ± 0.29	-1.42 ± 0.15
UUCUAGCAAUAUUACGCUGG	-4.38 ± 0.46	

Sequence	self-splicing fitness (ln) (30 °C)	self-splicing fitness (ln) (37 °C)
UUCUAGCAAUAUUACGGACG	-1.14 ± 0.15	0.26 ± 0.15
UUCUAGCAAUAUUACGGAGA	-2.45 ± 0.29	-2.41 ± 0.49
UUCUAGCAAUAUUACGGGCA	-0.323 ± 0.12	-0.0935 ± 0.12
UUCUAGCAAUAUUACGGGCC		-2.38 ± 0.45
UUCUAGCAAUAUUACGGGCG	-0.382 ± 0.12	-0.891 ± 0.12
UUCUAGCAAUAUUACGGGUC	-3.23 ± 0.32	-1.94 ± 0.23
UUCUAGCAAUAUUACGGGUU	-2.34 ± 0.17	-1.93 ± 0.24
UUCUAGCAAUAUUACGGUGC	-2.46 ± 0.4	-2.96 ± 0.38
UUCUAGCAAUAUUACGUAAA	-1.56 ± 0.26	-0.54 ± 0.23
UUCUAGCAAUAUUACGUAAU	-3.08 ± 0.15	-1.88 ± 0.17
UUCUAGCAAUAUUACGUACU	-3.29 ± 0.36	-2.97 ± 0.47
UUCUAGCAAUAUUACGUCGC	-3.18 ± 0.44	
UUCUAGCAAUAUUACGUCUC	-3.85 ± 0.37	-2.23 ± 0.25
UUCUAGCAAUAUUACGUGCU	-3.37 ± 0.24	-2.11 ± 0.24
UUCUAGCAAUAUUACGUUAA	-2.15 ± 0.23	-1.32 ± 0.18
UUCUAGCAAUAUUACGUUAC	-2.41 ± 0.23	-2.42 ± 0.29
UUCUAGCAAUAUUACGUUGC	-4.72 ± 0.39	-2.64 ± 0.22
UUCUAGCAAUAUUACGUUUG	-3.49 ± 0.35	-2.66 ± 0.4
UUGAAGCAAUAUUACGAACU	-1.61 ± 0.21	0.568 ± 0.2
UUGAAGCAAUAUUACGAAGU	-3.34 ± 0.19	-1.69 ± 0.21
UUGAAGCAAUAUUACGACAU	0.0991 ± 0.013	0.28 ± 0.033
UUGAAGCAAUAUUACGACGA	0.302 ± 0.12	0.04 ± 0.14
UUGAAGCAAUAUUACGAGAC	-3.37 ± 0.17	-2.5 ± 0.19
UUGAAGCAAUAUUACGAUCA	-0.786 ± 0.1	0.00258 ± 0.15
UUGAAGCAAUAUUACGAUCC		-1.38 ± 0.38

Sequence	self-splicing fitness (ln) (30 °C)	self-splicing fitness (ln) (37 °C)
UUGAAGCAAUAUUACGAUGC	-4.76 ± 0.39	-1.58 ± 0.24
UUGAAGCAAUAUUACGCAAC	-1.97 ± 0.25	-2.43 ± 0.39
UUGAAGCAAUAUUACGCGUC	-3.32 ± 0.33	-1.02 ± 0.33
UUGAAGCAAUAUUACGCUCA	-0.439 ± 0.12	1.17 ± 0.19
UUGAAGCAAUAUUACGGACA	0.534 ± 0.1	0.655 ± 0.14
UUGAAGCAAUAUUACGGAGU	-2.51 ± 0.17	-1.83 ± 0.18
UUGAAGCAAUAUUACGGGUU	-1.66 ± 0.093	-1.66 ± 0.16
UUGAAGCAAUAUUACGGUAG	-0.0974 ± 0.088	0.0801 ± 0.12
UUGAAGCAAUAUUACGGUGG	-0.88 ± 0.059	-0.498 ± 0.11
UUGAAGCAAUAUUACGGUUA	-0.344 ± 0.066	0.471 ± 0.086
UUGAAGCAAUAUUACGGUUU	-2.88 ± 0.11	-2.69 ± 0.19
UUGAAGCAAUAUUACGUAAA	-1.42 ± 0.062	-0.368 ± 0.081
UUGAAGCAAUAUUACGUAGC	-3.42 ± 0.28	-2.53 ± 0.33
UUGAAGCAAUAUUACGUCCA	0.231 ± 0.094	0.472 ± 0.12
UUGAAGCAAUAUUACGUGAA	-1.92 ± 0.26	-0.781 ± 0.22
UUGAAGCAAUAUUACGUUGG	-1.18 ± 0.089	-0.305 ± 0.15
UUGCAGCAAUAUUACGAAGA	-2.37 ± 0.21	-1.57 ± 0.18
UUGCAGCAAUAUUACGAAGG	-3.92 ± 0.28	-1.53 ± 0.2
UUGCAGCAAUAUUACGAAUG	-1.98 ± 0.086	-0.713 ± 0.1
UUGCAGCAAUAUUACGACAC	-1.37 ± 0.19	-1.22 ± 0.47
UUGCAGCAAUAUUACGACAU	-0.522 ± 0.012	0.00633 ± 0.032
UUGCAGCAAUAUUACGAGAA		-1.47 ± 0.34
UUGCAGCAAUAUUACGAGCC		-2.7 ± 0.31
UUGCAGCAAUAUUACGAUCG	-1.13 ± 0.1	-0.473 ± 0.14
UUGCAGCAAUAUUACGAUGG	-0.811 ± 0.14	-1.07 ± 0.19

Sequence	self-splicing fitness (ln) (30 °C)	self-splicing fitness (ln) (37 °C)
UUGCAGCAAUAUUACGAUUG	-1.62 ± 0.32	-0.337 ± 0.21
UUGCAGCAAUAUUACGGAAC	-2.24 ± 0.32	
UUGCAGCAAUAUUACGGAGA	-1.85 ± 0.12	-1.08 ± 0.096
UUGCAGCAAUAUUACGGAUA	-1.92 ± 0.15	-1.12 ± 0.17
UUGCAGCAAUAUUACGGGCU	-1.6 ± 0.16	-1.17 ± 0.22
UUGCAGCAAUAUUACGGGUG	-1.7 ± 0.081	-1.59 ± 0.13
UUGCAGCAAUAUUACGGGUU	-3.77 ± 0.25	-2.15 ± 0.21
UUGCAGCAAUAUUACGGUCU	-2.05 ± 0.092	-1.26 ± 0.092
UUGCAGCAAUAUUACGUAUA	-1.32 ± 0.12	-1.01 ± 0.12
UUGCAGCAAUAUUACGUGCC	-2.11 ± 0.14	-1.18 ± 0.15
UUGCAGCAAUAUUACGUGGG	-3.24 ± 0.12	-2.8 ± 0.17
UUGCAGCAAUAUUACGUUAC	-2.77 ± 0.15	-2.18 ± 0.17
UUGCAGCAAUAUUACGUUCU	-2.44 ± 0.12	-0.872 ± 0.11
UUGCAGCAAUAUUACGUUUG	-2.14 ± 0.14	-0.998 ± 0.14
UUGGAGCAAUAUUACGAAUA		-2.1 ± 0.46
UUGGAGCAAUAUUACGACUA	-1.58 ± 0.41	
UUGGAGCAAUAUUACGACUU	-1.94 ± 0.19	-0.866 ± 0.28
UUGGAGCAAUAUUACGCCAA	-1.49 ± 0.44	
UUGGAGCAAUAUUACGCGAA		-1.4 ± 0.29
UUGGAGCAAUAUUACGCGCG	-2.3 ± 0.11	-0.8 ± 0.1
UUGGAGCAAUAUUACGCGGC		-1.26 ± 0.41
UUGGAGCAAUAUUACGCUCC	-2.79 ± 0.33	-0.876 ± 0.46
UUGGAGCAAUAUUACGGAAA	-3.48 ± 0.47	-1.64 ± 0.24
UUGGAGCAAUAUUACGGCCG	-1.89 ± 0.3	-0.616 ± 0.29
UUGGAGCAAUAUUACGGCCU	-2.26 ± 0.29	-1.25 ± 0.27
